B1: 01A09R3L His-tagged VHH (VHH)
VHH: EVQLVESGGGVVQAEDSLRLSCAASGLSFSLSRMGWFRQAPGKEREFVATIEWSGRSTYKYYDDSVKGRFAVSGDNTKNTMNLQMKGLNLEDTGVYYCAANPNNYGDPRTPGAYQYWGQGTQVTVSS
B2: 01H02R3LS His-tagged VHH (VHH)
VHH: QVQLVESGGGLVQPGGSLRLSCAASGSIFSASVMGWYRQGPGKQREFVARISPGGVTHYADSVKGRFTISKDNAKNTVTLQMNSLKPEDTAVYYCNADRFGFEVYWGQGTLVTVSS
B3: 01H10R2 His-tagged VHH (VHH)
VHH: QVQLVESGGGLVQPGGSLRLSCAASGRTSSISTMGWFRQAPGKEREFVTAIRWSGSSSYKYYADSVKGRFTISRDNARNTVYLQMNSLKPEDTAVYYCAAQMSLWRDPREIDYDYWGQGTLVTVSS
B4: 02C10R3 His-tagged VHH (VHH)
VHH: EVQLVESGGGLVQPGGSLRLSCAASGFTFSSFTMTWFRQAPGKGLGWVSRISSDGTGTNYADSVKGRFTISRDNAKNTLYLRMNSLKPEDTAVYYCAIADDSSTRGQGTLVTVSS
B5: 01H08R3 His-tagged VHH (VHH)
VHH: QVQLVESGGGSVQTGGSLRLSCTASGRTFSNYGMGWFRQAPGKEREFVAGITRSGRTTYYYYADAVKGRFTIPRDNADNTIYLQMDSMKPDDTAVYYCAARQGENNYDPRSGSAYNYWGPGTQVTVSS
B6: 02B12R3 His-tagged VHH (VHH)
VHH: QVQLVESGGGWVQTGGSLRLSCAASGRTVSSYYMGWFRQTPGKEREFVAAISWVGSSTYKYYTDSAKGRFTISRDNAKNTVYLQMNSLKPEDTAVYYCAARPRVGDPRSRYDDDNWGQGTQVTVSS
B7: 01H10R3 His-tagged VHH (VHH)
VHH: QVQLVESGGGLVQAGGSLRLSCAASGRAFSQYTMGWFRQAPGKEREFVTAIRWSGGSIYKYYADSVKGRFTISGDNARNTVDLQMNSLKPEDTAVYYCAARMSPWGDPRGNEYDYWGQGTLVTVSS
B8: 01B04R2 VHH Mono-Fc (Fc fusion)
chain: EVQLVESGGGLVQAGGSLRLSCAASGRTFTSYTMGWFRQAPGKEREFVAAIKWNGGSTYYADSVKGRFTISRDNAKNTVYLQMNSLKPEDTAVYYCAADGDPYFSPTDGIVWHAPHQSEYDYWGQGTLVTVSSSPAPELLGGPSVFLFPPKPKDTLMISRTPEVTCVVVDVSHEDPEVKFNWYVDGVEVHNAKTKPREEQYNSTYRVVSVLTVLHQDWLNGKEYKCKVSNKALPAPIEKTISKAKGQPREPQVYTKPPSREEMTKNQVSLSCLVKGFYPSDIAVEWESNGQPENNYKTTVPVLDSDGSFRLASYLTVDKSRWQQGNVFSCSVMHEALHNHYTQKSLSLSPGK
B9: 02C10R3 VHH Mono-Fc (Fc fusion)
chain: EVQLVESGGGLVQPGGSLRLSCAASGFTFSSFTMTWFRQAPGKGLGWVSRISSDGTGTNYADSVKGRFTISRDNAKNTLYLRMNSLKPEDTAVYYCAIADDSSTRGQGTLVTVSSSPAPELLGGPSVFLFPPKPKDTLMISRTPEVTCVVVDVSHEDPEVKFNWYVDGVEVHNAKTKPREEQYNSTYRVVSVLTVLHQDWLNGKEYKCKVSNKALPAPIEKTISKAKGQPREPQVYTKPPSREEMTKNQVSLSCLVKGFYPSDIAVEWESNGQPENNYKTTVPVLDSDGSFRLASYLTVDKSRWQQGNVFSCSVMHEALHNHYTQKSLSLSPGK
B10: 01C09R3LS VHH Mono-Fc (Fc fusion)
chain: EVQLVESGGGLVQAGGSLRLSCAASGRTINTYVMGWFRQAPGKEREFVARIDWSGSSTDYADSVKGRFTISRDNAKNTVYLQMNSLKPEDTAVYYCAGSAYYSGYVTHRDFGSWGQGTQVTVSSSPAPELLGGPSVFLFPPKPKDTLMISRTPEVTCVVVDVSHEDPEVKFNWYVDGVEVHNAKTKPREEQYNSTYRVVSVLTVLHQDWLNGKEYKCKVSNKALPAPIEKTISKAKGQPREPQVYTKPPSREEMTKNQVSLSCLVKGFYPSDIAVEWESNGQPENNYKTTVPVLDSDGSFRLASYLTVDKSRWQQGNVFSCSVMHEALHNHYTQKSLSLSPGK
B11: 01F03R3LS VHH Mono-Fc (Fc fusion)
chain: EVQLVESGGGLVQAGGSLRLSCAASGRTINGYVMGWFRQAPGEEREFVARIDWSGSSTDYADSVKGRFTISRDNAKITVYLQMNSLKPEDTAVYYCAGSAYYSGYVTHRDFGSWGQGTLVTVSSSPAPELLGGPSVFLFPPKPKDTLMISRTPEVTCVVVDVSHEDPEVKFNWYVDGVEVHNAKTKPREEQYNSTYRVVSVLTVLHQDWLNGKEYKCKVSNKALPAPIEKTISKAKGQPREPQVYTKPPSREEMTKNQVSLSCLVKGFYPSDIAVEWESNGQPENNYKTTVPVLDSDGSFRLASYLTVDKSRWQQGNVFSCSVMHEALHNHYTQKSLSLSPGK
B12: 03A08R3 VHH Mono-Fc (Fc fusion)
chain: QVQLVESGGGLVQAGGSLRLSCAASGRTSSIYGMGWFRQAPGKEREFVAAISWSAGRTYHADSVKGRFTISRDNAKNMVYLQMDKMKPGDTAVYYCAARRAPELLSDYTQKPEEIGTYHYWGQGTLVTVSSSPAPELLGGPSVFLFPPKPKDTLMISRTPEVTCVVVDVSHEDPEVKFNWYVDGVEVHNAKTKPREEQYNSTYRVVSVLTVLHQDWLNGKEYKCKVSNKALPAPIEKTISKAKGQPREPQVYTKPPSREEMTKNQVSLSCLVKGFYPSDIAVEWESNGQPENNYKTTVPVLDSDGSFRLASYLTVDKSRWQQGNVFSCSVMHEALHNHYTQKSLSLSPGK
B13: 01C02R2 VHH Mono-Fc (Fc fusion)
chain: EVQLVESGGGLVQAGGSLRLSCAASGRSYAMGWFRQAPGKEREFAAAISWSGSRTYYADAVKGRFTISRDNAKNTVYLQMNSLKPEDTAVYYCAADPDGTVVASSGWTNSYEYGYWGQGTLVTVSSSPAPELLGGPSVFLFPPKPKDTLMISRTPEVTCVVVDVSHEDPEVKFNWYVDGVEVHNAKTKPREEQYNSTYRVVSVLTVLHQDWLNGKEYKCKVSNKALPAPIEKTISKAKGQPREPQVYTKPPSREEMTKNQVSLSCLVKGFYPSDIAVEWESNGQPENNYKTTVPVLDSDGSFRLASYLTVDKSRWQQGNVFSCSVMHEALHNHYTQKSLSLSPGK
B14: 02G04R3 VHH Mono-Fc (Fc fusion)
chain: QVQLVESGGGLVQAGGSLRLSCAANGRAANAYAVGWFRQAPGKEREFVAHIRWNGGRTAYADSVKGRFTISRDDAKNTVYLQMDSLKPEDTAVYYCAEDTNPDAFGDLRLPSEYEYWGQGTQVTVSSSPAPELLGGPSVFLFPPKPKDTLMISRTPEVTCVVVDVSHEDPEVKFNWYVDGVEVHNAKTKPREEQYNSTYRVVSVLTVLHQDWLNGKEYKCKVSNKALPAPIEKTISKAKGQPREPQVYTKPPSREEMTKNQVSLSCLVKGFYPSDIAVEWESNGQPENNYKTTVPVLDSDGSFRLASYLTVDKSRWQQGNVFSCSVMHEALHNHYTQKSLSLSPGK
B15: 01D04R3LS VHH Mono-Fc (Fc fusion)
chain: EVQLVESGGGLVQAGGSLRLSCAASGRTFRSYAMGWFRQAPGKEREFVADISWRGGRLYYADSVKGRFTISRDNAKNTVYLQMNSLKPEDTAVYYCAATGDQPAFTTAQGMGAMLEYDYWGQGTLVTVSSSPAPELLGGPSVFLFPPKPKDTLMISRTPEVTCVVVDVSHEDPEVKFNWYVDGVEVHNAKTKPREEQYNSTYRVVSVLTVLHQDWLNGKEYKCKVSNKALPAPIEKTISKAKGQPREPQVYTKPPSREEMTKNQVSLSCLVKGFYPSDIAVEWESNGQPENNYKTTVPVLDSDGSFRLASYLTVDKSRWQQGNVFSCSVMHEALHNHYTQKSLSLSPGK
B16: 03H01R3 VHH Mono-Fc (Fc fusion)
chain: EVQLVESGGGLVQAGGSLRLSCAASGRTSSIYNMGWFRQAPGQEREFVAAIHWGGGRTYYADSVKGRFTISRDNAKNTVYLQMNSLEPGDTANYYCAARRAPELLDDYKQKPEEIGTYHYWGQGTQVTVSSSPAPELLGGPSVFLFPPKPKDTLMISRTPEVTCVVVDVSHEDPEVKFNWYVDGVEVHNAKTKPREEQYNSTYRVVSVLTVLHQDWLNGKEYKCKVSNKALPAPIEKTISKAKGQPREPQVYTKPPSREEMTKNQVSLSCLVKGFYPSDIAVEWESNGQPENNYKTTVPVLDSDGSFRLASYLTVDKSRWQQGNVFSCSVMHEALHNHYTQKSLSLSPGK
B17: 01D09R3 VHH Mono-Fc (Fc fusion)
chain: QVQLVESGGGLVQAGGSLRLSCAASGRTFSVYAMGWFRQAPGKERQFVAAITWSGGSTSYADSVKGRFTISRDNAKNTVYLQMNILKPEDTAVYYCAAATNPYFSDYYPDLKYEFDYWGQGTLVTVSSSPAPELLGGPSVFLFPPKPKDTLMISRTPEVTCVVVDVSHEDPEVKFNWYVDGVEVHNAKTKPREEQYNSTYRVVSVLTVLHQDWLNGKEYKCKVSNKALPAPIEKTISKAKGQPREPQVYTKPPSREEMTKNQVSLSCLVKGFYPSDIAVEWESNGQPENNYKTTVPVLDSDGSFRLASYLTVDKSRWQQGNVFSCSVMHEALHNHYTQKSLSLSPGK

The term Kd denotes the constant that tells how readily two partners part at equilibrium.

T2 sequence (P01833 other isoform, or with tags, fused parts or gaps): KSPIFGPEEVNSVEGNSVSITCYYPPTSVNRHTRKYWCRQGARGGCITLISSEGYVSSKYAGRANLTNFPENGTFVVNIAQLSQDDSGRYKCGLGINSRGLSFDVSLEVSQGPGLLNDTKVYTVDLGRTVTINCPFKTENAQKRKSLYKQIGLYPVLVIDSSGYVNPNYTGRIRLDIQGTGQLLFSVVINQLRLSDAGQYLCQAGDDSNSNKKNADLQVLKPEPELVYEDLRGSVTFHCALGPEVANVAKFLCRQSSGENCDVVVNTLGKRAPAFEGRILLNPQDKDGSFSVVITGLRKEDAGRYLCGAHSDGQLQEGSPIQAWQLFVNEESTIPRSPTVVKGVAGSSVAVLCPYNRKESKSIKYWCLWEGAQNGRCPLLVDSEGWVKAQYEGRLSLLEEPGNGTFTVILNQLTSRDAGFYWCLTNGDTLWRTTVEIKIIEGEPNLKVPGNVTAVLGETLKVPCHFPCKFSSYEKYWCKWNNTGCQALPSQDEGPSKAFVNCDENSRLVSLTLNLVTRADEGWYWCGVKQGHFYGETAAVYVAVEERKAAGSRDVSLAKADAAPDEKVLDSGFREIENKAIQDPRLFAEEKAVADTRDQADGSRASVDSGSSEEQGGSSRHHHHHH
T3 sequence (A0A2K5WMU9 entry or part of it): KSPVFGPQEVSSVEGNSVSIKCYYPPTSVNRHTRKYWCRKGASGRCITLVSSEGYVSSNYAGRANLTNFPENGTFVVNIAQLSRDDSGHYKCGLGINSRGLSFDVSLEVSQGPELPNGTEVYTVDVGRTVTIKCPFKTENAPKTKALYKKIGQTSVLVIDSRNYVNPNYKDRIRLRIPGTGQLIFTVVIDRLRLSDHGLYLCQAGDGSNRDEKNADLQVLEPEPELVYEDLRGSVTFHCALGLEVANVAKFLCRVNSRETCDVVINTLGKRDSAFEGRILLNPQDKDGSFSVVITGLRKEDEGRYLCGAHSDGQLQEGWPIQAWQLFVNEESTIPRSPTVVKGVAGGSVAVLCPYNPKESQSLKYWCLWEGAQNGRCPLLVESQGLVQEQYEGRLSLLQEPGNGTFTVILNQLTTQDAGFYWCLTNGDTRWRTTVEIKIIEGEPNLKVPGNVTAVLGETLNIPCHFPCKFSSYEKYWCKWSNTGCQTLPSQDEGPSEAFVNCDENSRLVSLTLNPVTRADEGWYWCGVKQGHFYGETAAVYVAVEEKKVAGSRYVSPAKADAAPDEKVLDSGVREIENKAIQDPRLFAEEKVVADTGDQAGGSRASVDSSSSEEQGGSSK

The first assay deals with T1, recombinant human pIgR (hpIgR) (human, UniProt P01833 19-638, limits assumed).
T1 construct: probably the ECD
T1 sequence (P01833 19-638 limits assumed): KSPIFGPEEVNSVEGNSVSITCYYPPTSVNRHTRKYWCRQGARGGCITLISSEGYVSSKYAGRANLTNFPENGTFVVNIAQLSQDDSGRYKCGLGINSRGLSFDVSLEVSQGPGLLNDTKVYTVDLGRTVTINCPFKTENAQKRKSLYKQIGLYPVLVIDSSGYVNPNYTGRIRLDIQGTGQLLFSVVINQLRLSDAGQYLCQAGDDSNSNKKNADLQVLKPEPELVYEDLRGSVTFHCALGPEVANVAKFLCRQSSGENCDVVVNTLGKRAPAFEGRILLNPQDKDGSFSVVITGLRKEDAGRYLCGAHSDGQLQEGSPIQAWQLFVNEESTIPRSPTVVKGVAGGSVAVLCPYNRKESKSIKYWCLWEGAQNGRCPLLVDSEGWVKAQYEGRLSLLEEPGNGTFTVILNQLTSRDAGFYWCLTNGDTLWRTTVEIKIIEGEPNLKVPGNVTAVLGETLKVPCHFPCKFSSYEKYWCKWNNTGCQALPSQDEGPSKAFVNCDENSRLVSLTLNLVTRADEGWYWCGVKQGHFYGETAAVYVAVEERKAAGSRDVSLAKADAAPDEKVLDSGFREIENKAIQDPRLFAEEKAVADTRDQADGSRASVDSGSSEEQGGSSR
As to the kind of experiment: ELISA, periplasmic VHH, BSA subtracted. In short, it runs like this:
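His-tagged VHH in periplasmic extracts (osmotic shock, non-suppressor E. coli) were tested by ELISA for binding to pIgR. Bound nanobody was detected with polyclonal anti-alpaca VHH antibody in the initial screen and anti-VHH antibody on retest. Signal on BSA, run in parallel, was subtracted from the pIgR signal.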
On the technique in general: In an ELISA, binding on a coated surface is turned into a signal by an enzyme label.
Turning to B1, the “ELISA (OD)” value is 1.98 OD.

With B2, the “ELISA (OD)” value is 1.97 OD.

Consider B3, for which the “ELISA (OD)” value was determined as 1.83 OD.

B4: the “ELISA (OD)” value turned out to be 2.05 OD.

With B5, the “ELISA (OD)” value worked out at 1.11 OD.

B6: the “ELISA (OD)” value came to 2.38 OD.

For the molecule B7, the “ELISA (OD)” value turned out to be 1.54 OD.

A further assay concerns the target T2, human pIgR extracellular domain (ECD) (human, UniProt P01833 19-638).
T2 construct: Bought from R&D Systems (Cat 2717-PG-050); also called hpIgR ECD
Description: SPR, VHH captured by anti-Fc, ECD analyte. The protocol:
(§1) In an assay, two flow cells of the SPR were used, in which the flow cell 1 ran the buffer reference, and the flow cell 2 ran the analyte. […] The HBSP (GE) buffer was followed at a flow rate of 30 μL/min. Then, the VHHs were captured on the anti-human Fc protein surface at 0.5 ug/ml (˜200-300 RU) on the flow cell 2. The running buffer was changed to HBSP with 100 ug/ml BSA after the capture. Next, the pIgR extracellular domains were used as analyte and loaded in a series of concentrations, starting at 30 nM with further 3-fold dilution series.
(§2) The extracellular domains were prepared as follows: cynomolgus monkey and rat extracellular domains were produced and characterized in house; mouse and human pIgR extracellular domains were purchased from R&D Systems (Cat #2800-PG-050 & 2717-PG-050 respectively). The pIgR extracellular domains were injected from low to high concentration using a single-cycle kinetics method. The off-rate was monitored at 30 minutes after the last or highest concentration injection. The reference run was completed under the same conditions except that the pIgR injection was replaced by buffer injection.
(§3) The raw data were processed by subtracting two sets of reference data from the response data: (1) reference flow cell 1 subtracted from sample flow cell 2; and (2) buffer blank run subtracted from experimental run. The processed data at all concentrations for each VHH were globally fit to a 1:1 simple Langmuir binding model to extract estimates of the kinetic constants (kₒₙ, koff) and affinity constants (KD).
The molecule B8 returned a Kd of 16.8 nM.

On to B9, for which binding was put at a Kd of 2.09 nM.

The molecule B10 had a Kd of 6.92 nM.

B11 gave a dissociation constant (Kd) of 10.9 nM.

As for B12, the affinity, expressed as Kd, was 1.97 nM.

B13 gave a Kd of 0.275 nM.

For the molecule B14, the Kd amounted to 1.29 nM.

Regarding B15, the Kd came out at 1.16 nM.

B16 came in with a Kd of 0.15 nM.

B17 displayed a Kd of 2.76 nM.

A further assay addresses T3, cynomolgus monkey pIgR extracellular domain (cynomolgus monkey, UniProt A0A2K5WMU9 19-638).
T3 construct: extracellular domain
Description: SPR, VHH captured by anti-Fc, ECD analyte. The protocol:
as §1, §2, §3
B10 registered a Kd of 93.7 nM.

The values are drawn from patent US20220112276A1 (Janssen / Centocor, published 2022).
